Measured values taken from article PMC8172861, “Structural and phylogenetic analyses of resistance to next-generation aminoglycosides conferred by AAC(2′) enzymes” (Scientific Reports, 2021).

Experiments:
Assay in all cases: purified protein
Format in all cases: biochemical, Providencia stuartii
[1] = tested on: CN[C@@H]1[C@@H](O)[C@@H](O[C@@H]2[C@@H](O)[C@H](O[C@H]3OC(CNCCO)=CC[C@H]3N)[C@@H](N)C[C@H]2NC(=O)[C@@H](O)CCN)OC[C@]1(C)O; settings: acetyl-CoA (S)-HABA tail hydrogen bonds with Glu149 and Asp176
[2] = tested on: CCN[C@@H]1C[C@H](N)[C@@H](O[C@H]2OC(CN)=CC[C@H]2N)[C@H](O)[C@H]1O[C@H]1OC[C@](C)(O)[C@H](NC)[C@H]1O; settings: acetyl-CoA aminoglycoside active site; acetylated at N-2′
[3] = tested on: NC[C@H]1O[C@H](O[C@H]2[C@H](O)[C@@H](O[C@H]3O[C@H](CO)[C@@H](O)[C@H](N)[C@H]3O)[C@H](N)C[C@@H]2N)[C@H](N)C[C@@H]1O; settings: acetyl-CoA aminoglycoside active site; acetylated at N-2′

AAC(2′)-Ia (Providencia stuartii) showed a Km [1] of 19.1 ± 2.5 µM, a kcat [1] of 1.42 ± 0.05 s⁻¹ and a kcat/Km [1] of 74000 ± 12000 M⁻¹ s⁻¹. It also gave a Km [2] of 19.9 ± 1.3 µM, a kcat [2] of 6.05 ± 0.13 s⁻¹ and a kcat/Km [2] of 304000 ± 26000 M⁻¹ s⁻¹. The Km [3] was 14.5 ± 1.7 µM, the kcat [3] was 5.04 ± 0.17 s⁻¹ and the kcat/Km [3] was 348000 ± 51000 M⁻¹ s⁻¹.
